Laboratory results reported in US20230265151A1, “GIP/GLP1 CO-AGONIST COMPOUNDS” (priority 2020, published 2023).
*1 amine or outer side, *2 acyl side, *3 side chain or, on linkers, in order; H or OH if unused. Where no end group is shown, it is not given here. Side-chain parts run from the residue outwards. [ ]: non-standard residue; d: D form. The star is where a group is joined. αMePhe(2-F) = C[C@](N)(Cc1ccccc1F)C(=O)O; γGlu = O=C(O)[C@H](CCC(=O)[*:2])N[*:1]; C14 diacid = O=C(O)CCCCCCCCCCCCC(=O)*; εLys = N[C@@H](CCCCN[*:1])C(=O)[*:2]; αMeY = C[C@](N)(Cc1ccc(O)cc1)C(=O)O; αMeF = C[C@](N)(Cc1ccccc1)C(=O)O; αMeL = CC(C)C[C@](C)(N)C(=O)O; Orn = NCCC[C@H](N)C(=O)O; AEEA = NCCOCCOCC(=O)O; Aib = CC(C)(N)C(=O)O

Tests used:
Assay in all cases: cell-based or functional assay
human GLP-1 receptor = human GLP-1 receptor (human, UniProt P43220 24-463)
human GIP receptor = biological target: T1, human GIP receptor (human, UniProt P48546 22-466)
T1 sequence (looked up): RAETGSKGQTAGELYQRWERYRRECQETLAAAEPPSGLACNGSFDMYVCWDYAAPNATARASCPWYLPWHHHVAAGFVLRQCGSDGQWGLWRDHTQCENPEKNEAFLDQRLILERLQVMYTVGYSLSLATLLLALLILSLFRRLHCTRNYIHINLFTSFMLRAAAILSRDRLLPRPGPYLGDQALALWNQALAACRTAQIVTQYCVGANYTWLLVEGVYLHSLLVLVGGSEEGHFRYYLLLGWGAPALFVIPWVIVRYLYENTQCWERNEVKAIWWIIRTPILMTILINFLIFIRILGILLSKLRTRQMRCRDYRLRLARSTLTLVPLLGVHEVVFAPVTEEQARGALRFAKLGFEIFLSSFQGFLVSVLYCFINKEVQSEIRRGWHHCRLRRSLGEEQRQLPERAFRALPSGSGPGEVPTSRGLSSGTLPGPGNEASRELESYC

human glucagon receptor = human glucagon receptor (human, UniProt P47871 26-477)
[1] = biological target: human glucagon-like peptide-1 (GLP-1) receptor (human, UniProt P43220 24-463)
[2] = biological target: T2, human glucose-dependent insulinotropic polypeptide (GIP) receptor (human, UniProt P48546 22-466)
T2 sequence (looked up): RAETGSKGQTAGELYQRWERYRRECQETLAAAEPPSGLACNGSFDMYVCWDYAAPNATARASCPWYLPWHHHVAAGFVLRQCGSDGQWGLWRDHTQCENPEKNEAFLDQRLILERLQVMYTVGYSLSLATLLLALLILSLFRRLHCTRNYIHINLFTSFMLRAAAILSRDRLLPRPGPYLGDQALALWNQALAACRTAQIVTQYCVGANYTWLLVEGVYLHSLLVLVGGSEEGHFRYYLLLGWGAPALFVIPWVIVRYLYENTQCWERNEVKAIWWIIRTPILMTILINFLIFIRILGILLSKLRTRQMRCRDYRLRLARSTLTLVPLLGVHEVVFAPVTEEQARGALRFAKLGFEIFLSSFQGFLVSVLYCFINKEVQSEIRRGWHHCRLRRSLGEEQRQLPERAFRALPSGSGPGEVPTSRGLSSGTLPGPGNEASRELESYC

B1: Y-Aib-EGT-αMeF(2F)-TSDV-Aib-I-αMeL-LD-Orn-K((2-[2-(2-Amino-ethoxy)-ethoxy]-acetyl)2-(γ-Glu)-CO-(CH2)12-CO2H)AQ-Aib-EFI-(D-Glu)-αMeY-LIEGGK((2-[2-(2-Amino-ethoxy … (peptide)
peptide: Y[Aib]EGT[αMePhe(2-F)]TSDV[Aib]I[αMeL]LD[Orn]K([AEEA-AEEA-γGlu-C14 diacid])AQ[Aib]EFI[dE][αMeY]LIEGGK([AEEA-AEEA-γGlu-C14 diacid])SSGAPPPS-NH2
modifications: N-terminus assumed
SMILES: CC[C@H](C)[C@H](NC(=O)[C@H](CC(C)C)NC(=O)[C@](C)(Cc1ccc(O)cc1)NC(=O)[C@@H](CCC(=O)O)NC(=O)[C@@H](NC(=O)[C@H](Cc1ccccc1)NC(=O)[C@H](CCC(=O)O)NC(=O)C(C)(C)NC(=O)[C@H](CCC(N)=O)NC(=O)[C@H](C)NC(=O)[C@H](CCCCNC(=O)COCCOCCNC(=O)COCCOCCNC(=O)CC[C@H](NC(=O)CCCCCCCCCCCCC(=O)O)C(=O)O)NC(=O)[C@H](CCCN)NC(=O)[C@H](CC(=O)O)NC(=O)[C@H](CC(C)C)NC(=O)[C@](C)(CC(C)C)NC(=O)[C@@H](NC(=O)C(C)(C)NC(=O)[C@@H](NC(=O)[C@H](CC(=O)O)NC(=O)[C@H](CO)NC(=O)[C@@H](NC(=O)[C@](C)(Cc1ccccc1F)NC(=O)[C@@H](NC(=O)CNC(=O)[C@H](CCC(=O)O)NC(=O)C(C)(C)NC(=O)[C@@H](N)Cc1ccc(O)cc1)[C@@H](C)O)[C@@H](C)O)C(C)C)[C@@H](C)CC)[C@@H](C)CC)C(=O)N[C@@H](CCC(=O)O)C(=O)NCC(=O)NCC(=O)N[C@@H](CCCCNC(=O)COCCOCCNC(=O)COCCOCCNC(=O)CC[C@H](NC(=O)CCCCCCCCCCCCC(=O)O)C(=O)O)C(=O)N[C@@H](CO)C(=O)N[C@@H](CO)C(=O)NCC(=O)N[C@@H](C)C(=O)N1CCC[C@H]1C(=O)N1CCC[C@H]1C(=O)N1CCC[C@H]1C(=O)N[C@@H](CO)C(N)=O
cAMP EC50 (1.0% HSA) (human GLP-1 receptor): 20.4 nM | cAMP EC50 (1.0% HSA) (human GIP receptor): 7.05 nM

B2: Example 179 (peptide)
peptide: YXEGTXTSDVSIXLDXKAQXEFIXXLIEGGKSSGAPPPS
modifications: Aib2, αMeF6, αMeL13, Orn16, K17(Z), Aib20, D-Glu24, αMeY25, K31(Z), C-terminal NH2; Z = AEEA2-(γ-Glu)-CO-(CH2)12-CO2H
cAMP EC50 (human glucagon receptor): > 9950 nM | cAMP EC50 [1]: 0.461 nM | cAMP Emax [1]: 99% | cAMP EC50 [2]: 0.15 nM | cAMP Emax [2]: 91%

B3: Example 197 (peptide)
peptide: YXEGTXTSDXSIXLDXIAQXEFIKXLIEGGKSSGAPPPS
modifications: Aib2, αMeF(2F)6, 4Pal10, αMeL13, Orn16, Aib20, K24(Z), αMeY25, K31(Z), C-terminal NH2; Z = (εK)-(γ-Glu)-CO-(CH2)12-CO2H
cAMP EC50 (human glucagon receptor): > 9950 nM | cAMP EC50 [1]: 0.336 nM | cAMP EC50 [2]: 0.0338 nM | cAMP Emax [2]: 102%

B4: Example 181 (peptide)
peptide: YXEGTXTSDVSIXLDXKAQXEFIKXLIEGGPSSGAPPPS
modifications: Aib2, αMeF6, αMeL13, Orn16, K17(Z), Aib20, K24(Z), αMeY25, C-terminal NH2; Z = AEEA2-(γ-Glu)-CO-(CH2)12-CO2H
cAMP EC50 (human glucagon receptor): > 9950 nM | cAMP EC50 [1]: 0.182 nM | cAMP EC50 [2]: 0.154 nM | cAMP Emax [2]: 94.6%

B5: Example 198 (peptide)
peptide: YXEGTXTSDXSIXLDXIAQXEFIKXLIEGGKSSGAPPPS
modifications: Aib2, αMeF(2F)6, 4Pal10, αMeL13, Orn16, Aib20, K24(Z), αMeY25, K31(Z), C-terminal NH2; Z = (εK)-(εK)-(γ-Glu)-CO-(CH2)12-CO2H
cAMP EC50 (human glucagon receptor): > 9950 nM | cAMP EC50 [1]: 0.362 nM | cAMP EC50 [2]: 0.0269 nM | cAMP Emax [2]: 94%

B6: Example 195 (peptide)
peptide: YXEGTXTSDXSIXLDXIAQXKFIXXLIEGGKSSGAPPPS
modifications: not fully specified; Aib2, αMeF(2F)6, 4Pal10, αMeL13, Orn16, Aib20, K21(AEEA2-CO-(CH2)12-CO2H), D-Glu24, αMeY25, K31(AEEA2-CO-(CH2)2-CO2H as printed), C-terminal NH2
cAMP EC50 (human glucagon receptor): > 9950 nM | cAMP EC50 [1]: 0.343 nM | cAMP EC50 [2]: 0.0219 nM | cAMP Emax [2]: 88.5%

B7: Example 193 (peptide)
peptide: YXEGTXTSDXSIXLDXIAQXEFIKXLIEGGKSSGAPPPS
modifications: Aib2, αMeF(2F)6, 4Pal10, αMeL13, Orn16, Aib20, K24(Z), αMeY25, K31(Z), C-terminal NH2; Z = AEEA2-CO-(CH2)12-CO2H
cAMP EC50 (human glucagon receptor): > 9950 nM | cAMP EC50 [1]: 0.382 nM | cAMP EC50 [2]: 0.0201 nM | cAMP Emax [2]: 97.2%

B8: Example 199 (peptide)
peptide: YXEGTXTSDXXIXLDXKAQXEFIXXLIEGGKSSGAPPPS
modifications: Aib2, αMeF(2F)6, 4Pal10, Dap11, αMeL13, Orn16, K17(Z), Aib20, D-Glu24, αMeY25, K31(Z), C-terminal NH2; Z = AEEA2-(γ-Glu)-CO-(CH2)12-CO2H
cAMP EC50 (human glucagon receptor): > 9950 nM | cAMP EC50 [1]: 3.2 nM | cAMP Emax [1]: 96.7% | cAMP EC50 [2]: 0.0587 nM | cAMP Emax [2]: 96.9%

B9: Example 194 (peptide)
peptide: YXEGTXTSDXSIXLDXIAQXEFIKXLIEGGPSSGAPPPSK
modifications: Aib2, αMeF(2F)6, 4Pal10, αMeL13, Orn16, Aib20, K24(Z), αMeY25, K40(Z), C-terminal NH2; Z = AEEA2-CO-(CH2)12-CO2H
cAMP EC50 (human glucagon receptor): > 9950 nM | cAMP EC50 [1]: 0.317 nM | cAMP Emax [1]: 103% | cAMP EC50 [2]: 0.0233 nM | cAMP Emax [2]: 93.1%

B10: Example 196 (peptide)
peptide: YXEGTXTSDXSIXLDXIAQXKFIXXLIEGGPSSGAPPPSK
modifications: Aib2, αMeF(2F)6, 4Pal10, αMeL13, Orn16, Aib20, K21(Z), D-Glu24, αMeY25, K40(Z), C-terminal NH2; Z = AEEA2-CO-(CH2)12-CO2H
cAMP EC50 (human glucagon receptor): > 9950 nM | cAMP EC50 [1]: 0.356 nM | cAMP EC50 [2]: 0.0232 nM

B11: Example 191 (peptide)
peptide: YXEGTXTSDXSIXLDXIAQXKFIKXLIEGGPSSGAPPPS
modifications: Aib2, αMeF(2F)6, 4Pal10, αMeL13, Orn16, Aib20, K21(Z), K24(Z), αMeY25, C-terminal NH2; Z = AEEA2-CO-(CH2)12-CO2H
cAMP EC50 (human glucagon receptor): > 9950 nM | cAMP EC50 [1]: 0.926 nM | cAMP Emax [1]: 98.6% | cAMP EC50 [2]: 0.0601 nM | cAMP Emax [2]: 90%

B12: Example 192 (peptide)
peptide: YXEGTXTSDXSIXLDXIAQXEFIKXLIKGGPSSGAPPPS
modifications: Aib2, αMeF(2F)6, 4Pal10, αMeL13, Orn16, Aib20, K24(Z), αMeY25, K28(Z), C-terminal NH2; Z = AEEA2-CO-(CH2)12-CO2H
cAMP EC50 (human glucagon receptor): > 9950 nM | cAMP EC50 [1]: 0.518 nM | cAMP EC50 [2]: 0.0375 nM

Y[Aib]EGT[αMeF]TSDV[Aib]I[αMeL]LD[Orn]K([AEEA-AEEA-γGlu-C14 diacid])AQ[Aib]EFIK([AEEA-AEEA-γGlu-C14 diacid])[αMeY]LIEGGKSSGAPPPS-NH2 (not fully specified) [Example 182]
cAMP EC50 (human glucagon receptor): > 9950 nM | cAMP EC50 [1]: 0.185 nM | cAMP Emax [1]: 96.9% | cAMP EC50 [2]: 0.368 nM | cAMP Emax [2]: 89%

B13: Y-Aib-EGT-αMeF(2F)-TSDV-Aib-I-αMeL-LD-Orn-K((εK)-(γ-Glu)-CO-(CH2)12-CO2H)AQ-Aib-EFI-(D-Glu)-αMeY-LIEGGK((εK)-(γ-Glu)-CO-(CH2)12-CO2H)SSGAPPPS-NH2 (peptide)
peptide: Y[Aib]EGT[αMePhe(2-F)]TSDV[Aib]I[αMeL]LD[Orn]K([εLys-γGlu-C14 diacid])AQ[Aib]EFI[dE][αMeY]LIEGGK([εLys-γGlu-C14 diacid])SSGAPPPS-NH2
modifications: N-terminus assumed
SMILES: CC[C@H](C)[C@H](NC(=O)[C@H](CC(C)C)NC(=O)[C@](C)(Cc1ccc(O)cc1)NC(=O)[C@@H](CCC(=O)O)NC(=O)[C@@H](NC(=O)[C@H](Cc1ccccc1)NC(=O)[C@H](CCC(=O)O)NC(=O)C(C)(C)NC(=O)[C@H](CCC(N)=O)NC(=O)[C@H](C)NC(=O)[C@H](CCCCNC(=O)[C@@H](N)CCCCNC(=O)CC[C@H](NC(=O)CCCCCCCCCCCCC(=O)O)C(=O)O)NC(=O)[C@H](CCCN)NC(=O)[C@H](CC(=O)O)NC(=O)[C@H](CC(C)C)NC(=O)[C@](C)(CC(C)C)NC(=O)[C@@H](NC(=O)C(C)(C)NC(=O)[C@@H](NC(=O)[C@H](CC(=O)O)NC(=O)[C@H](CO)NC(=O)[C@@H](NC(=O)[C@](C)(Cc1ccccc1F)NC(=O)[C@@H](NC(=O)CNC(=O)[C@H](CCC(=O)O)NC(=O)C(C)(C)NC(=O)[C@@H](N)Cc1ccc(O)cc1)[C@@H](C)O)[C@@H](C)O)C(C)C)[C@@H](C)CC)[C@@H](C)CC)C(=O)N[C@@H](CCC(=O)O)C(=O)NCC(=O)NCC(=O)N[C@@H](CCCCNC(=O)[C@@H](N)CCCCNC(=O)CC[C@H](NC(=O)CCCCCCCCCCCCC(=O)O)C(=O)O)C(=O)N[C@@H](CO)C(=O)N[C@@H](CO)C(=O)NCC(=O)N[C@@H](C)C(=O)N1CCC[C@H]1C(=O)N1CCC[C@H]1C(=O)N1CCC[C@H]1C(=O)N[C@@H](CO)C(N)=O
cAMP EC50 (1.0% HSA) (human GLP-1 receptor): 26.6 nM | cAMP EC50 (1.0% HSA) (human GIP receptor): 3.62 nM
